# Results from article PMC9368491.
# Target: β-catenin (endogenous) (UniProt P35222)
# Assay: anti-Cav-1 IP, β-catenin blot
# Conditions: reference: WT Cav-1, DMSO; sites Y14
substance,measurement,value
"Caveolin-1 (Cav-1) (from UniProt Q03135) Y14F Cav-1, DMSO",binding against the reference,weaker
